{"source": "patent US20160002338A1", "about": "(Hoffmann-La Roche, published 2016)", "binders": {"B1": {"name": "anti-HER3 antibody M-08-11 (antibody, V domains shown)", "VH": "QAYLQQSGAELMRPGASVRMSCQASGYTFTSYTIHWLKQTPRQGLEWIGAIYPRNGDFSYNQKFKDKASLTVDTSSSTAYMHLSSLTSEDSAVYFCARTINYGDWFAYWGQGTLVTVSA", "VL": "DIQMIQSPASLFVSEGETVIITCRASENIYSNLAWYHQKKGKSPQVLVYAAIKLADGVPLRFSGSGSGTQFSLKINSLQSEDFGSYYCQHFWGPPYTFGSGTNLEIK", "notes": "also called M-011; <Her3> M-08-11"}, "B2": {"name": "humanized variant VH-A/VL-D of anti-HER3 antibody M-05-74 (antibody, V domains shown)", "VH": "QVQLVQSGAELKKPGASVKVSCRTSGYTLTDYWIHWVRQAPGQGLEWMGYINPYTGYTESNQKFKDRVAMTRDASINTAYMELTSLRSDDTAVYYCARPYYYGDYWGQGTLVTVSS", "VL": "EIVLTQSPATLSLSPGERATLSCSASSSVSYMHWFQQKPGQPPRLLIYSTSNLASGIPARFSGSGSGTDFTLTISSLEPEDFAVYYCQQRSSYPFTFGGGTKVEIK", "notes": "also called humanized DIB-74"}, "B3": {"name": "M-05-74-Fab-Pseudomonas exotoxin conjugate (M-05-74-PE) (other)", "light": "QIVLTQSPAIMSASPGERVTITCSASSSVSYMHWFQQKPGTSPKLLIYSTSNLASGVPARFSGSGSGTSYSLTISRMEAEDAATYYCQQRSSYPFTFGSGTKLEIKRTVAAPSVFIFPPSDEQLKSGTASVVCLLNNFYPREAKVQWKVDNALQSGNSQESVTEQDSKDSTYSLSSTLTLSKADYEKHKVYACEVTHQGLSSPVTKSFNRGEC", "heavy": "QVQLQQSGAELAKPGASVKMSCKTSGYTLTDYWIHWVKQRPGQGLEWIGYINPYTGYTESNQKFKDKATLTADKSSNTAYIQLSSLTSEDSAVYYCARPYYYGDYWGQGTTLTVSSASTKGPSVFPLAPSSKSTSGGTAALGCLVKDYFPEPVTVSWNSGALTSGVHTFPAVLQSSGLYSLSSVVTVPSSSLGTQTYICNVNHKPSNTKVDKKVEPKSCGGGSLPETGGGRHRQPRGWEQLYPTGAEFLGDGGAVSFSTRGTQNWTVERLLQAHRQLEEGGYVFVGYHGTFLEAAQSIVFGGVRARSQDLDAIWAGFYIAGDPALAYGYAQDQEPDAAGRIRNGALLRVYVPRSSLPGFYATSLTLAAPEAAGEVERLIGHPLPLRLDAITGPEESGGRLETILGWPLAERTVVIPSAIPTDPRNVGGDLDPSSIPDSEAAISALPDYASQPGKPPREDL"}}, "key": {"[1]": {"biological_target": "T1, HER4 ECD peptide hairpin, overlapping 15-mer peptides (human)", "T1 construct": "also called β-hairpin of HER4", "T1 peptide": "PQTFVYNPTTFQLEHNFNA", "assay": "CelluSpots peptide array"}, "HER4 ECD-HRG complex": {"biological_target": "T2, HER4 ECD-HRG complex (human, UniProt Q15303 26-651)", "T2 construct": "HER4 ECD preincubated with a 5-fold molar excess of Heregulin; also called HER-4-ECD-RG", "T2 sequence 1": "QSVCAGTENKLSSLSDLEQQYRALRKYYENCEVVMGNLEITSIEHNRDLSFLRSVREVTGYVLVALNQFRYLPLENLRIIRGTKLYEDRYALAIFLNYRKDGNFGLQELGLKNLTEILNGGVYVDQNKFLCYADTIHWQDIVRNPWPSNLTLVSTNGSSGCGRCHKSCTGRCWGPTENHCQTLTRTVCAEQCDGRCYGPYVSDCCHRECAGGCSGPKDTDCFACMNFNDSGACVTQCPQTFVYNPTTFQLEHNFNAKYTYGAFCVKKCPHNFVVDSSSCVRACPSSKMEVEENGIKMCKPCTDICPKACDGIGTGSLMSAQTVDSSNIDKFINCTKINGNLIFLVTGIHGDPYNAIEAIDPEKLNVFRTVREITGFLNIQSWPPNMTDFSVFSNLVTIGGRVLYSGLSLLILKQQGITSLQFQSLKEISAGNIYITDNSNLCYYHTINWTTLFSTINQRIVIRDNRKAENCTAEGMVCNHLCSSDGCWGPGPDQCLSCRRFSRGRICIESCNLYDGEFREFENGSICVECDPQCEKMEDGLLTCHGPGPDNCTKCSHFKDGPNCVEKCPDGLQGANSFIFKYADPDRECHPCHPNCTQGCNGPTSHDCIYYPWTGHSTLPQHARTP", "T2 sequence 2": "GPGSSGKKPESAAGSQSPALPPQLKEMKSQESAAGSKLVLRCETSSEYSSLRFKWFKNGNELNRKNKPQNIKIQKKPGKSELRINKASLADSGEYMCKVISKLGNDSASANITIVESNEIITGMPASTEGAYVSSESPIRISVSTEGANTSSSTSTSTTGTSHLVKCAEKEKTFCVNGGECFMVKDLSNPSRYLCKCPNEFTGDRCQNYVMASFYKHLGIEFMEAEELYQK", "assay": "SPR Biacore 3000, 37 C"}, "[2]": {"biological_target": "T3, human recombinant HER3 ECD (human, UniProt P21860 20-643)", "T3 construct": "68 kDa; also called human-Her3-ECD; full length Her3 ECD", "assay": "SPR Biacore 3000, 37 C"}, "HER3 ECD-HRG complex": {"biological_target": "T4, HER3 ECD-HRG complex (human, UniProt P21860 20-643)", "T4 construct": "also called Heregulin/Her-3 ECD", "assay": "SPR Biacore 3000, 37 C"}, "[3]": {"biological_target": "human HER3 (full length, on cells) (human, UniProt P21860 20-1342)", "assay": "cell-based or functional assay"}}, "data": [{"binder": "B1", "values": [{"measurement": "binding result", "setting": "[1]", "result": "no binding (tested: 1 µg/mL)"}]}, {"binder": "B2", "values": [{"measurement": "Molar Ratio MR", "setting": "HER4 ECD-HRG complex", "result": 0.8}, {"measurement": "Molar Ratio MR", "setting": "[2]", "result": 0.7}, {"measurement": "Molar Ratio MR", "setting": "HER3 ECD-HRG complex", "result": 0.8}]}, {"binder": "B3", "values": [{"measurement": "EC50 of cell killing of A549 cells, +HRG beta", "setting": "[3]", "result": 0.13, "unit": "µg/mL"}, {"measurement": "EC50 of cell killing of A549 cells, -HRG beta", "setting": "[3]", "result": 1.93, "unit": "µg/mL"}]}]}
